# Test results as given in patent publication US6436691B1, “Chemical compounds” (Zeneca Limited, priority 1995, dated 2002).
# Residue numbers refer to the chain shown, from its start. Numbers in names are those of the source.
# B1: [G251T,D253K]: HCPB mutant with G251T and D253K, (His)6-c-myc tag (protein, UniProt P15086 111-417, looked up, variant G251T D253K)
# Carboxypeptidase B: ATGHSYEKYNKWETIEAWTQQVATENPALISRSVIGTTFEGRAIYLLKVGKAGQNKPAIFMDCGFHAREWISPAFCQWFVREAVRTYGREIQVTELLDKLDFYVLPVLNIDGYIYTWTKSRFWRKTRSTHTGSSCIGTDPNRNFDAGWCEIGASRNPCDETYCGPAAESEKETKALADFIRNKLSSIKAYLTIHSYSQMMIYPYSYAYKLGENNAELNALAKATVKELASLHGTKYTYGPGATTIYPAAGTSKDWAYDQGIRYSFTFELRDTGRYGFLLPESQIRATCEETFLAIKYVASYVLEHLY
# modifications: (His)6-c-myc tag
# B2: D253R HCPB: mature HCPB with aspartate 253 changed to arginine, C-terminal (His)6-c-myc tag (protein, UniProt P15086 111-417, looked up, variant D253R)
# Carboxypeptidase B: B1 Carboxypeptidase B with T251G, K253R
# modifications: (His)6-c-myc tag
# B3: [G251S, D253K]: HCPB mutant with G251S and D253K, (His)6-c-myc tag (protein, UniProt P15086 111-417, looked up, variant G251S D253K)
# Carboxypeptidase B: B1 Carboxypeptidase B with T251S
# modifications: (His)6-c-myc tag
# Experiments:
# Assay type in all cases: biochemical
# [1] = Conversion of prodrug of Example 24 to drug of Example 25 by HCPB mutants, HPLC (Example 20); conditions: 0.5 mM prodrug of Example 24, 5 minutes at 37° C.
# Procedure: The reaction was stopped by adding MeCN (500 μl) plus 0.2% Trifluoroacetic acid. The amount of drug produced was then quantified by HPLC.
# HPLC separation was carried out as described in Example 6 except that a mobile phase of 70% MeCN, 30% distilled water and 0.1% trifluoroacetic acid was used to achieve separation of prodrug (retention time 3.8 minutes) and drug (retention time 4.9 minutes) and the compounds were detected at 260 nm. The amount of drug produced was quantified from calibration curves generated with known amounts of drug.
# The amount of [Q54R,D145A,D253K]HCPB and [G251T,D253K]HCPB mutants was reduced to 0.75 μg in the reaction mixture.
# [2] = Conversion of Hipp-Asp by purified HCPB mutants, 30 minutes, HPLC (Example 17); conditions: 0.5 mM substrate, 30 minutes at 37° C.
# Procedure: (§1) Purified mutants of human CPB (D253K; [G251K,D253R]; [G251N,D253R]; [I201S,D253K]; [G251N,D253K]; [Q54R,D145A,D253K]; [G251T,D253K]; [G251S,D253K]; [A248N,G251N,D253K]; [A248S,G251N,D253K] and [S205N,G251N,D253K]—described in Examples 3, 12, 13, 16, 28, 30, 31, 32 and 33) were assayed for their ability to convert hippuryl-L-glutamic acid (Hipp-Glu—Reference Example 1), hippuryl-L-aspartic acid (Hipp-Asp—Reference Example 2) and hippuryl-L-arginine (Sigma Chemical Company—cat no. H6625) to hippuric acid using a HPLC based assay similar to that described in Example 6.
# (§2) Samples were incubated for 30 minutes at 37° C. The reactions were terminated by the addition of 500 μl of 40% methanol, 60% distilled water, 0.2% trifluoro acetic acid and the amount of hippuric acid generated was quantitated by HPLC as described in Example 6 but using a mobile phase of 20% methanol, 80% 50 mM phosphate buffer, pH 6.5. Hippuric acid was detected at 230 nm. The results are shown in Table 5 and are expressed as the percentage conversion of substrate into product in 30 minutes at 37° C.
# [3] = Km and kcat of HCPB mutants with Hipp-Glu (Example 7); conditions: Hipp-Glu 0.25-8.0 mM; pH 7.5; 5 h at 37° C.
# Procedure: Hipp-Glu and Hipp-Asp were diluted in range 0.25-8.0 mM and 0.25-5.0 mM respectively in 0.025 M Tris-HCL buffer, pH 7.5. Where necessary substrate samples were adjusted to pH 7.5 with 1M NaOH.
# Samples were incubated for 5 h at 37° C. Reactions were terminated by the addition of 500 μl methanol/distilled water (80/20) containing 0.2% TFA. The amount of hippuric acid produced was quantified by HPLC as described in Example 6.
# Km and Vmax values were calculated using the ENZFITTER software programme (Biosoft, Perkin Elmer).
# [4] = Conversion of Hipp-Glu by purified HCPB mutants, 30 minutes, HPLC (Example 17); conditions: 0.5 mM substrate, 30 minutes at 37° C.
# Procedure: as §1, §2
# [5] = Conversion of Hipp-Arg by purified HCPB mutants, 30 minutes, HPLC (Example 17); conditions: 0.5 mM substrate, 30 minutes at 37° C.
# Procedure: as §1, §2
# [6] = Conversion of Hipp-Asp by periplasmic shockate of HCPB mutants, 24 h (Example 18); conditions: 24 h at 37° C.
# Procedure: (§3) The activity of [G251T,D253K]HCPB was measured using the assay conditions described in Example 17 but using either 50 μl of a neat or 1 in 10 or 1 in 100 dilution of [G251T,D253K]HCPB crude E.coli periplasmic shockate (shockate) sample in place of purified enzyme. Samples were incubated for 24 h at 37° C. […] For other HCPB mutants, the reaction volume was 250 μl and contained 125 μl of neat shockate or 1 in 50 dilution of shockate. The shockate samples were prepared as described in Example 16. The amount of Hippuric acid produced in 24 h was quantified by HPLC as described in Example 17 and the results are shown in Table 6 and are expressed as the percentage conversion of substrate into product in 24 h at 37° C.
# [7] = Conversion of Hipp-Arg by periplasmic shockate of HCPB mutants, 24 h (Example 18); conditions: 24 h at 37° C.
# Procedure: as §3
# [8] = Conversion of Hipp-Glu by periplasmic shockate of HCPB mutants, 24 h (Example 18); conditions: for Hipp-Glu (% conversion): 24 h at 37° C.
# Procedure: as §3
# [9] = Conversion of Hipp-Arg to hippuric acid by mutant and native human CPB, HPLC assay (Example 6); conditions: 5 hr at 37° C.; 4 μg enzyme
# Procedure: (§4) Purified mutants of human CPB (D253K and D253R; Examples 1-3) and native human CPB, produced as described in Reference Example 12, were assayed for their ability to convert either hippuryl-L-aspartic acid (Hipp-Asp—Reference Example 2), hippuryl-L-glutamic acid (Hipp-Glu—Reference Example 1) or hippuryl-L-arginine (Sigma Chemical Company—cat no. H6625) to hippuric acid using a HPLC based assay.
# (§5) The reaction mixture (250 μl) contained 4 μg human CPB (native or mutant) and 0.5 mM Hipp-Asp or Hipp-Glu in 0.025 M Tris-HCL, pH 7.5. Samples were incubated for 5 hr at 37° C. The reactions were terminated by the addition of 250 μl of 80% methanol, 20% distilled water, 0.2% trifluoro acetic acid and the amount of hippuric acid generated was quantified by HPLC.
# (§6) HPLC analysis was carried out using a Hewlett Packard 1090 Series 11 (with diode array) HPLC system. Samples (50 μl) were injected onto a Hichrom Hi-RPB column (25 cm) and separated using a mobile phase of 40% methanol, 60% distilled water, 0.1% trifluoro acetic acid at a flow rate of 1 ml/min. The amount of product (hippuric acid) produced was determined from calibration curves generated with known amounts of hippuric acid (Sigma-H6375). The results are shown in Table 1 and are expressed as the percentage conversion of substrate into product in 5 hr at 37° C. with 4 μg enzyme.
# [10] = Conversion of Hipp-Asp to hippuric acid by mutant and native human CPB, HPLC assay (Example 6); conditions: 5 hr at 37° C.; 4 μg enzyme; 0.5 mM substrate
# Procedure: as §4, §5, §6
# [11] = Conversion of Hipp-Glu to hippuric acid by mutant and native human CPB, HPLC assay (Example 6); conditions: 5 hr at 37° C.; 4 μg enzyme; 0.5 mM substrate
# Procedure: as §4, §5, §6
# [12] = Activity against Hipp-Glu in crude E. coli periplasmic shockate relative to D253K or D253R HCPB (Example 16)
# From the text: A number of other mutant HCPBs have been constructed in a similar manner to the methods described in Reference Examples 7 and 8, and Examples 12, 13, 14 and 15. In each case oligos were constructed to introduce specific changes in the gene sequence by methods similar to those described above. In some cases additional mutations were identified upon complete sequencing of the mutated gene, and these were presumably introduced during the PCR reactions. Mutants with enzyme activity against substrate analogues (see Example 18 below) have been identified, and examples of these are given in Table 4 below. […] This material is subsequently referred to as periplasmic shockate or shockate and is prepared by the following procedure.
# 1. A single colony was used to inoculate 75 ml of L-broth nutrient media containing 10 μg/ml tetracycline and arabinose to a final concentration of 0.01% (w/v). Incubation was performed at 20° C. with shaking (250 rpm) for about 60 hours.
# 2. The cells were then harvested by centrifugation at 4° C.
# 3. The cell pellet was re-suspended in 300 micro-liters of 20% sucrose (w/v) containing 1 mM EDTA in 200 mM Tris-HCl at pH7.5, and incubated at room-temperature for 15 minutes.
# 4. Periplasmic shockate was generated by the addition of 450 micro-liters of distilled water, and a further incubation at room-temperature for 15 minutes.
# 5. Cellular remains were removed by centrifugation, and the supernatant assayed for enzyme activity as soon as possible after preparation and kept at 4° C. prior to assay.
# The activity of [G251T,D253K]HCPB was measured using the assay conditions described in Example 17 but using either 50 μl of a neat or 1 in 10 or 1 in 100 dilution of [G251T,D253K]HCPB crude E.coli periplasmic shockate (shockate) sample in place of purified enzyme. Samples were incubated for 24 h at 37° C. […] The amount of Hippuric acid produced in 24 h was quantified by HPLC as described in Example 17 and the results are shown in Table 6 and are expressed as the percentage conversion of substrate into product in 24 h at 37° C.
# [13] = shockate concentration in reaction mixture 1 %
# [14] = shockate concentration in reaction mixture 10 %
# [15] = shockate concentration in reaction mixture 50 %
molecule,measurement,setting,value
B1,Prodrug Hydrolysis (%),[1]; enzyme 1.5 μg/ml,36.0%
same,Hipp-Asp (% conversion),[2]; enzyme 0.02 μg/ml,0%
same,Hipp-Asp (% conversion),[2]; enzyme 25 μg/ml,14%
same,Km,[3],1100 µM
same,"kcat, Hipp-Glu",[3],75 s⁻¹
same,Hipp-Glu (% conversion),[4]; enzyme 0.02 μg/ml,8.2%
same,Hipp-Glu (% conversion),[4]; enzyme 25 μg/ml,100%
same,Hipp-Arg (% conversion),[5]; enzyme 0.02 μg/ml,0%
same,Hipp-Arg (% conversion),[5]; enzyme 25 μg/ml,5.2%
same,Hipp-Asp (% conversion),[6]; [13],0%
same,Hipp-Asp (% conversion),[6]; [14],2.6%
same,Hipp-Arg (% conversion),[7]; [13],0.1%
same,Hipp-Arg (% conversion),[7]; [14],0.8%
same,Hipp-Glu (% conversion),[8]; shockate concentration in reaction mixture 0.1 %,60%
same,Hipp-Glu (% conversion),[8]; [13],93%
same,Hipp-Glu (% conversion),[8]; [14],100%
same,fold more active against Hipp-Glu compared to Hipp-Arg,"[8]; shockate samples, 24 h",over 900 fold
same,fold more active than D253K at converting Hipp-Glu to hippuric acid,"[8]; shockate samples, 24 h",at least 50 fold
B2,Prodrug Hydrolysis (%),[1]; enzyme 15 μg/ml,18.3%
same,Hipp-Arg (% conversion to Hippuric acid),[9],3%
same,Hipp-Asp (% conversion to Hippuric acid),[10],72%
same,Hipp-Glu (% conversion to Hippuric acid),[11],52%
B3,Hipp-Asp (% conversion),[2]; enzyme 0.25 μg/ml,0%
same,Hipp-Asp (% conversion),[2]; enzyme 25 μg/ml,2.8%
same,"Hipp-Glu, activity relative to D253K HCPB or D253R HCPB",[12],e (>10 times the activity of D253K HCPB)
same,Hipp-Glu (% conversion),[4]; enzyme 0.25 μg/ml,14.5%
same,Hipp-Glu (% conversion),[4]; enzyme 25 μg/ml,100%
same,Hipp-Arg (% conversion),[5]; enzyme 0.25 μg/ml,0%
same,Hipp-Arg (% conversion),[5]; enzyme 25 μg/ml,0.8%
same,Hipp-Asp (% conversion),[6]; [15],1.6%
same,Hipp-Glu (% conversion),[8]; [13],5%
same,Hipp-Glu (% conversion),[8]; [15],93.8%
